Results published in the supplement of paper PMC9112550, “Optimization of the antimicrobial peptide Bac7 by deep mutational scanning” (BMC Biology, 2022).

What follows are sequences tested on Escherichia coli TOP10 (assay: shrunken log2 fold change of peptide-encoding DNA abundance (4.5 h post-induction vs induction); higher = less antimicrobial activity (less host growth inhibition)). Conditions: time post-induction: 4.5 h; library: site-saturation at positions 5, 18, 19, 20.
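Note: peptides expressed intracellularly from a pBAD plasmid library in pooled LB shake-flask culture, induced with 0.3% L-arabinose, DNA abundance read by NGS, three biological replicates, DESeq2 with apeglm shrinkage.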

Row | Sequence | shrunken log2 fold change
1 | RRIRPRPPRLPRPRPRPHHDPRP | -0.266
2 | RRIRIRPPRLPRPRPRPWFDPRP | -0.184
3 | RRIRVRPPRLPRPRPRPAPSPRP | 0.342
4 | RRIRNRPPRLPRPRPRPCRNPRP | -0.437
5 | RRIRIRPPRLPRPRPRPTVCPRP | 0.312
6 | RRIRLRPPRLPRPRPRPKEHPRP | 0.227
7 | RRIRCRPPRLPRPRPRPTLWPRP | 0.313
8 | RRIRHRPPRLPRPRPRPRRKPRP | 0.0896
9 | RRIRHRPPRLPRPRPRPTAYPRP | -0.23
10 | RRIRMRPPRLPRPRPRPINCPRP | -0.0244
11 | RRIRKRPPRLPRPRPRPPFKPRP | 0.498
12 | RRIRLRPPRLPRPRPRPKFRPRP | -0.0412
13 | RRIRGRPPRLPRPRPRPIIGPRP | -0.0822
14 | RRIRIRPPRLPRPRPRPIGDPRP | -0.0264
15 | RRIRFRPPRLPRPRPRPGIEPRP | -0.0616
16 | RRIRERPPRLPRPRPRPGKKPRP | -0.0022
17 | RRIRLRPPRLPRPRPRPYHTPRP | -0.484
18 | RRIRIRPPRLPRPRPRPKGPPRP | -0.14
19 | RRIRWRPPRLPRPRPRPEYRPRP | 0.0624
20 | RRIRLRPPRLPRPRPRPVHDPRP | -0.458
21 | RRIRCRPPRLPRPRPRPIHWPRP | -0.363
22 | RRIRLRPPRLPRPRPRPNKIPRP | -0.243
23 | RRIRIRPPRLPRPRPRPNYNPRP | -1.12
24 | RRIRMRPPRLPRPRPRPDIYPRP | 0.0832
25 | RRIRFRPPRLPRPRPRPIGLPRP | -0.251

Row | Sequence | shrunken log2 fold change
26 | RRIRVRPPRLPRPRPRPGSFPRP | -0.122
27 | RRIRLRPPRLPRPRPRPYLRPRP | -0.132
28 | RRIRTRPPRLPRPRPRPCAEPRP | -0.11
29 | RRIRMRPPRLPRPRPRPCNPPRP | -0.0764
30 | RRIRTRPPRLPRPRPRPASGPRP | 0.614
31 | RRIRLRPPRLPRPRPRPSFMPRP | -0.309
32 | RRIRSRPPRLPRPRPRPDEWPRP | -0.00195
33 | RRIRQRPPRLPRPRPRPTAAPRP | 0.933
34 | RRIRDRPPRLPRPRPRPCAPPRP | -0.0226
35 | RRIRRRPPRLPRPRPRPSAQPRP | 0.234
36 | RRIRHRPPRLPRPRPRPNPNPRP | -0.202
37 | RRIRFRPPRLPRPRPRPFQQPRP | -0.268
38 | RRIRTRPPRLPRPRPRPDGRPRP | -0.0138
39 | RRIRSRPPRLPRPRPRPRDQPRP | -0.0856
40 | RRIRIRPPRLPRPRPRPYDWPRP | -0.593
41 | RRIRARPPRLPRPRPRPHARPRP | 0.156
42 | RRIRLRPPRLPRPRPRPDDLPRP | -0.0581
43 | RRIRHRPPRLPRPRPRPRSGPRP | -0.0415
44 | RRIRLRPPRLPRPRPRPFCHPRP | 0.0449
45 | RRIRCRPPRLPRPRPRPDQVPRP | -0.183
46 | RRIRNRPPRLPRPRPRPGIRPRP | 0.0989
47 | RRIRQRPPRLPRPRPRPQMAPRP | -0.065
48 | RRIRGRPPRLPRPRPRPGVNPRP | 0.075
49 | RRIRHRPPRLPRPRPRPECKPRP | -0.0985
50 | RRIRTRPPRLPRPRPRPHDYPRP | -0.196

Row | Sequence | shrunken log2 fold change
51 | RRIRDRPPRLPRPRPRPWMGPRP | -0.368
52 | RRIRPRPPRLPRPRPRPDFYPRP | -0.156
53 | RRIRPRPPRLPRPRPRPANEPRP | 0.18
54 | RRIRNRPPRLPRPRPRPWDIPRP | -0.00804
55 | RRIRKRPPRLPRPRPRPCGIPRP | 0.0772
56 | RRIRFRPPRLPRPRPRPCEQPRP | -0.00534
57 | RRIRVRPPRLPRPRPRPSYSPRP | -0.376
58 | RRIRHRPPRLPRPRPRPRHLPRP | 0.184
59 | RRIRNRPPRLPRPRPRPFGCPRP | -0.128
60 | RRIRVRPPRLPRPRPRPTTEPRP | 0.14
61 | RRIRPRPPRLPRPRPRPWTPPRP | 0.0256
62 | RRIRTRPPRLPRPRPRPQRHPRP | 0.19
63 | RRIRYRPPRLPRPRPRPKLNPRP | -0.689
64 | RRIRDRPPRLPRPRPRPTRKPRP | 0.385
65 | RRIRPRPPRLPRPRPRPPEHPRP | 0.0484
66 | RRIRVRPPRLPRPRPRPWWFPRP | -0.307
67 | RRIRYRPPRLPRPRPRPATRPRP | 0.098
68 | RRIRYRPPRLPRPRPRPDVAPRP | 0.105
69 | RRIRCRPPRLPRPRPRPAFGPRP | 0.194
70 | RRIRTRPPRLPRPRPRPAYLPRP | -0.0925
71 | RRIRKRPPRLPRPRPRPYIIPRP | -0.0823
72 | RRIRHRPPRLPRPRPRPWDEPRP | -0.175
73 | RRIRYRPPRLPRPRPRPEGPPRP | 0.12
74 | RRIRGRPPRLPRPRPRPPWPPRP | 0.871
75 | RRIRLRPPRLPRPRPRPGPFPRP | 0.137

Row | Sequence | shrunken log2 fold change
76 | RRIRQRPPRLPRPRPRPKLTPRP | -0.0707
77 | RRIRARPPRLPRPRPRPYKWPRP | -0.393
78 | RRIRDRPPRLPRPRPRPNEQPRP | -0.0164
79 | RRIRVRPPRLPRPRPRPLQIPRP | -0.0888
80 | RRIRIRPPRLPRPRPRPSGYPRP | 0.00435
81 | RRIRHRPPRLPRPRPRPHYFPRP | 0.00508
82 | RRIRCRPPRLPRPRPRPMQMPRP | 0.0279
83 | RRIRPRPPRLPRPRPRPMDQPRP | -0.113
84 | RRIRHRPPRLPRPRPRPRQEPRP | 0.0426
85 | RRIRDRPPRLPRPRPRPYYTPRP | -0.817
86 | RRIRDRPPRLPRPRPRPSHTPRP | -0.436
87 | RRIRWRPPRLPRPRPRPLKQPRP | 0.206
88 | RRIRLRPPRLPRPRPRPDMYPRP | -0.0404
89 | RRIRGRPPRLPRPRPRPVMKPRP | 0.729
90 | RRIRQRPPRLPRPRPRPETIPRP | -0.0395
91 | RRIRIRPPRLPRPRPRPTHYPRP | -0.392
92 | RRIRSRPPRLPRPRPRPNKVPRP | -0.283
93 | RRIRKRPPRLPRPRPRPAQVPRP | 0.296
94 | RRIRCRPPRLPRPRPRPTGRPRP | 0.238
95 | RRIRIRPPRLPRPRPRPKPLPRP | -0.191
96 | RRIRKRPPRLPRPRPRPHAVPRP | 0.132
97 | RRIRKRPPRLPRPRPRPYPCPRP | -0.034
98 | RRIRPRPPRLPRPRPRPWGWPRP | 0.149
99 | RRIRGRPPRLPRPRPRPRPIPRP | 0.635
100 | RRIRGRPPRLPRPRPRPKWWPRP | 1.13

Row | Sequence | shrunken log2 fold change
101 | RRIRTRPPRLPRPRPRPQQPPRP | 0.153
102 | RRIRYRPPRLPRPRPRPENPPRP | -0.382
103 | RRIRMRPPRLPRPRPRPDVGPRP | 0.0278
104 | RRIRDRPPRLPRPRPRPYKCPRP | -0.00925
105 | RRIRDRPPRLPRPRPRPQGYPRP | -0.0816
106 | RRIRLRPPRLPRPRPRPEKFPRP | -0.175
107 | RRIRFRPPRLPRPRPRPTPRPRP | 0.803
108 | RRIRTRPPRLPRPRPRPMHLPRP | -0.318
109 | RRIRHRPPRLPRPRPRPTDYPRP | 0.029
110 | RRIRWRPPRLPRPRPRPSMNPRP | 0.0339
111 | RRIRTRPPRLPRPRPRPMNHPRP | -0.0849
112 | RRIRWRPPRLPRPRPRPVTKPRP | 0.235
113 | RRIRCRPPRLPRPRPRPFKFPRP | -0.788
114 | RRIRSRPPRLPRPRPRPAFRPRP | 0.452
115 | RRIRNRPPRLPRPRPRPYRDPRP | -0.0123
116 | RRIRVRPPRLPRPRPRPETMPRP | 0.0389
117 | RRIRARPPRLPRPRPRPQSRPRP | -0.112
118 | RRIRARPPRLPRPRPRPFAYPRP | -0.289
119 | RRIRLRPPRLPRPRPRPMIVPRP | -0.199
120 | RRIRVRPPRLPRPRPRPQHYPRP | -0.718
121 | RRIRSRPPRLPRPRPRPNCYPRP | -0.0528
122 | RRIRYRPPRLPRPRPRPKTHPRP | -0.661
123 | RRIRYRPPRLPRPRPRPGYLPRP | -0.33
124 | RRIRYRPPRLPRPRPRPVHWPRP | 0.0233
125 | RRIRYRPPRLPRPRPRPDAAPRP | 0.294

Row | Sequence | shrunken log2 fold change
126 | RRIRIRPPRLPRPRPRPDAWPRP | 0.32
127 | RRIRFRPPRLPRPRPRPYCIPRP | -0.597
128 | RRIRRRPPRLPRPRPRPIHYPRP | -0.359
129 | RRIRIRPPRLPRPRPRPDIDPRP | -0.151
130 | RRIRVRPPRLPRPRPRPNSIPRP | 0.0266
131 | RRIRRRPPRLPRPRPRPLVIPRP | -0.0686
132 | RRIRCRPPRLPRPRPRPTMKPRP | -0.246
133 | RRIRPRPPRLPRPRPRPTCAPRP | 0.268
134 | RRIRPRPPRLPRPRPRPTMAPRP | 0.502
135 | RRIRQRPPRLPRPRPRPEHWPRP | 0.0788
136 | RRIRMRPPRLPRPRPRPGTHPRP | 0.056
137 | RRIRDRPPRLPRPRPRPRKVPRP | 0.187
138 | RRIRARPPRLPRPRPRPKPHPRP | 0.579
139 | RRIRLRPPRLPRPRPRPVTCPRP | -0.125
140 | RRIRGRPPRLPRPRPRPNRIPRP | 0.281
141 | RRIRNRPPRLPRPRPRPCMFPRP | -0.68
142 | RRIRMRPPRLPRPRPRPQIDPRP | 0.141
143 | RRIRCRPPRLPRPRPRPQCCPRP | 0.254
144 | RRIRPRPPRLPRPRPRPRQIPRP | -0.0965
145 | RRIRDRPPRLPRPRPRPQDDPRP | 0.0352
146 | RRIRDRPPRLPRPRPRPAEYPRP | -0.491
147 | RRIRTRPPRLPRPRPRPPAAPRP | 0.353
148 | RRIRRRPPRLPRPRPRPGIEPRP | -0.0777
149 | RRIRYRPPRLPRPRPRPDYIPRP | -0.0327
150 | RRIRDRPPRLPRPRPRPPVEPRP | -0.0332
